How the values were obtained:
Test in all cases: purified protein
Conditions in all cases: 20 mM Tris-HCl pH 8.5, 50 mM NaCl, 100 µg/ml BSA, 37°C
[1] = test system: Nc1nc2c(ncn2[C@@H]2O[C@H](COP(=O)(O)O[C@H]3[C@@H](O)[C@H](n4ccc(=O)[nH]c4=O)O[C@@H]3CO)[C@@H](OP(=O)(O)OC[C@H]3O[C@@H](n4ccc(=O)[nH]c4=O)[C@H](O)[C@@H]3OP(=O)(O)OC[C@H]3O[C@@H](n4cnc5c(N)ncnc54)[C@H](O)[C@@H]3O)[C@H]2O)c(=O)[nH]1
[2] = test system: Nc1nc2c(ncn2[C@@H]2O[C@H](COP(=O)(O)O[C@H]3[C@@H](O)[C@H](n4ccc(=O)[nH]c4=O)O[C@@H]3CO)[C@@H](OP(=O)(O)OC[C@H]3O[C@@H](n4ccc(=O)[nH]c4=O)[C@H](O)[C@@H]3O)[C@H]2O)c(=O)[nH]1
[3] = test system: Nc1nc2c(ncn2[C@@H]2O[C@H](CO)[C@@H](OP(=O)(O)OC[C@H]3O[C@@H](n4ccc(=O)[nH]c4=O)[C@H](O)[C@@H]3OP(=O)(O)OC[C@H]3O[C@@H](n4cnc5c(N)ncnc54)[C@H](O)[C@@H]3O)[C@H]2O)c(=O)[nH]1
[4] = test system: Nc1nc2c(ncn2[C@@H]2O[C@H](CO)[C@@H](OP(=O)(O)OC[C@H]3O[C@@H](n4ccc(=O)[nH]c4=O)[C@H](O)[C@@H]3OP(=O)(O)O)[C@H]2O)c(=O)[nH]1
[5] = test system: Nc1nc2c(ncn2[C@@H]2O[C@H](COP(=O)(O)O[C@H]3[C@@H](O)[C@H](n4ccc(=O)[nH]c4=O)O[C@@H]3CO)[C@@H](OP(=O)(O)OC[C@H]3O[C@@H](n4ccc(=O)[nH]c4=O)[C@H](O)[C@@H]3OP(=O)(O)O)[C@H]2O)c(=O)[nH]1
[6] = test system: Nc1nc2c(ncn2[C@@H]2O[C@H](COP(=O)(O)O[C@H]3[C@@H](O)[C@H](n4cnc5c(N)ncnc54)O[C@@H]3CO)[C@@H](OP(=O)(O)OC[C@H]3O[C@@H](n4ccc(=O)[nH]c4=O)[C@H](O)[C@@H]3OP(=O)(O)OC[C@H]3O[C@@H](n4cnc5c(N)ncnc54)[C@H](O)[C@@H]3O)[C@H]2O)c(=O)[nH]1

**Q.** Which results are given for “E5-CRD (colicin E5 C-terminal ribonuclease domain) (Escherichia coli)”?
**A.** Km [1]: 59.5 (18) μM; kcat [1]: 84.2 s⁻¹; kcat/Km [1]: 1.41e+06 M⁻¹ s⁻¹; Km [2]: 143 (38) μM; kcat [2]: 3.57 s⁻¹; kcat/Km [2]: 25100 M⁻¹ s⁻¹; Km [3]: 53.6 (16) μM; kcat [3]: 11.7 s⁻¹; kcat/Km [3]: 218000 M⁻¹ s⁻¹; Km [4]: 32.9 (5.5) μM; kcat [4]: 42.9 s⁻¹; kcat/Km [4]: 1.3e+06 M⁻¹ s⁻¹; Km [5]: 41.3 (16) μM; kcat [5]: 34 s⁻¹; kcat/Km [5]: 823000 M⁻¹ s⁻¹; Km [6]: 90.6 (23) μM; kcat [6]: 65.8 s⁻¹; kcat/Km [6]: 730000 M⁻¹ s⁻¹

— PMC1635277
